We go through 21 sequences from the supplement of paper PMC10724198.

± gives the standard deviation of the averaged measurements.

Data set [1] relates to Saccharomyces cerevisiae. In words: protein stability index of tFT-peptide fusion (C-terminal peptide) (PSI (0-1 scale)); higher = more stable (slower turnover). On the procedure: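 MPS profiling in S. cerevisiae of the tFT-X12 degron library: putative degron peptides plus stable controls, 12 aa, fused to the C-terminus of a sfGFP-mCherry timer. Cells are FACS-sorted into 8 mCherry/sfGFP bins and deep-sequenced. PSI runs from 0 (unstable) to 1 (stable). Backgrounds are wild type, das1Δ and doa10Δ at 30 °C, and wild type, das1Δ, cdc34-1 and cdc53-1 at 37 °C; 2-3 technical replicates each.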

Data set [2] concerns Saccharomyces cerevisiae. Described as above. Particulars: genetic background: wild type; temperature: 30 C.
Setting [3] is: genetic background: cdc34-1, temperature: 37 C.
Setting [4] is: genetic background: cdc53-1, temperature: 37 C.
Setting [5] is: genetic background: das1 deletion, temperature: 30 C.
Setting [6] is: genetic background: das1 deletion, temperature: 37 C.
Where [7] appears, read: genetic background: doa10 deletion, temperature: 30 C.
Setting [8] is: genetic background: wild type, temperature: 30 C.
Setting [9] is: genetic background: wild type, temperature: 37 C.
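Note: PSI is a weighted mean of sequencing reads over stability bins, variants kept only with over 10 reads, mCherry proximal and sfGFP distal, peptide attached via GGGS linker.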

For the sequence ALRLPPPPFSLY, the protein stability index was 0.677 ± 0.045 with Saccharomyces cerevisiae [1] (setting [3]); 0.757 ± 0.025 in the data set on Saccharomyces cerevisiae [1] (setting [4]); 0.561 ± 0.05 with Saccharomyces cerevisiae [1] (setting [5]); 0.72 ± 0.035 with Saccharomyces cerevisiae [1] (setting [6]); 0.174 ± 0.0065 with Saccharomyces cerevisiae [1] (setting [7]); 0.237 ± 0.036 in the data set on Saccharomyces cerevisiae [1] (setting [8]). Also, the protein stability index in the data set on Saccharomyces cerevisiae [1] (setting [9]) is 0.461 ± 0.023.

With APPSFPPLLLLS, the protein stability index in the data set with Saccharomyces cerevisiae [1] (setting [3]) was found to be 0.664 ± 0.028; in the data set on Saccharomyces cerevisiae [1] (setting [4]), 0.697 ± 0.038; with Saccharomyces cerevisiae [1] (setting [5]), 0.6054 ± 0.002; with Saccharomyces cerevisiae [1] (setting [6]), 0.71 ± 0.016; in the data set with Saccharomyces cerevisiae [1] (setting [7]), 0.254 ± 0.018; with Saccharomyces cerevisiae [1] (setting [8]), 0.286 ± 0.017. Besides, the protein stability index with Saccharomyces cerevisiae [1] (setting [9]) amounted to 0.499 ± 0.034.

Take AQCRGGGLSGVG: the protein stability index in the data set with Saccharomyces cerevisiae [1] (setting [3]) turned out to be 0.572 ± 0.023; with Saccharomyces cerevisiae [1] (setting [4]), 0.6409 ± 0.0041; in the data set with Saccharomyces cerevisiae [1] (setting [5]), 0.566 ± 0.016; in the data set on Saccharomyces cerevisiae [1] (setting [6]), 0.615 ± 0.014; in the data set with Saccharomyces cerevisiae [1] (setting [7]), 0.57 ± 0.013; in the data set with Saccharomyces cerevisiae [1] (setting [8]), 0.562 ± 0.011. Also, the protein stability index in the data set with Saccharomyces cerevisiae [1] (setting [9]) turned out to be 0.603 ± 0.02.

In the case of CLCLICFLCWFA, the protein stability index in the data set with Saccharomyces cerevisiae [1] (setting [3]) was 0.475 ± 0.037; in the data set on Saccharomyces cerevisiae [1] (setting [4]), 0.546 ± 0.012; in the data set with Saccharomyces cerevisiae [1] (setting [5]) it was 0.408 ± 0.0097; in the data set with Saccharomyces cerevisiae [1] (setting [6]) it was 0.514 ± 0.0052; in the data set on Saccharomyces cerevisiae [1] (setting [7]), 0.387 ± 0.01; in the data set on Saccharomyces cerevisiae [1] (setting [8]), 0.384 ± 0.038. The same sequence displayed a protein stability index with Saccharomyces cerevisiae [1] (setting [9]) of 0.4958 ± 0.0039.

Consider GFLGMFFFWFAL, for which the protein stability index in the data set with Saccharomyces cerevisiae [1] (setting [3]) came out at 0.588 ± 0.0078; in the data set with Saccharomyces cerevisiae [1] (setting [4]), 0.648 ± 0.05; in the data set on Saccharomyces cerevisiae [1] (setting [5]), 0.4628 ± 0.0043; in the data set on Saccharomyces cerevisiae [1] (setting [6]), 0.635 ± 0.011; in the data set on Saccharomyces cerevisiae [1] (setting [7]) it was 0.461 ± 0.012; in the data set on Saccharomyces cerevisiae [1] (setting [8]) it was 0.473 ± 0.022. In the data set with Saccharomyces cerevisiae [1] (setting [9]), this sequence yielded a protein stability index of 0.579 ± 0.018.

As to GGGGMGRRVGVG, the protein stability index in the data set on Saccharomyces cerevisiae [1] (setting [3]) was determined as 0.361 ± 0.036; in the data set with Saccharomyces cerevisiae [1] (setting [4]), 0.4177 ± 0.0019; with Saccharomyces cerevisiae [1] (setting [5]), 0.396 ± 0.0093; in the data set with Saccharomyces cerevisiae [1] (setting [6]), 0.4202 ± 0.0022; with Saccharomyces cerevisiae [1] (setting [7]), 0.4009 ± 0.0015; with Saccharomyces cerevisiae [1] (setting [8]) it was 0.398 ± 0.011. For the same sequence, the protein stability index in the data set on Saccharomyces cerevisiae [1] (setting [9]) is 0.415 ± 0.0084.

With LCLPLYIRILSF, the protein stability index in the data set with Saccharomyces cerevisiae [1] (setting [3]) came to 0.0413 ± 0.0034; in the data set on Saccharomyces cerevisiae [1] (setting [4]) it was 0.052 ± 0.0091; with Saccharomyces cerevisiae [1] (setting [5]), 0.145 ± 0.03; in the data set with Saccharomyces cerevisiae [1] (setting [6]), 0.18258 ± 1.6e-05; in the data set on Saccharomyces cerevisiae [1] (setting [7]) it was 0.161 ± 0.0023; in the data set on Saccharomyces cerevisiae [1] (setting [8]), 0.129 ± 0.016. The protein stability index in the data set with Saccharomyces cerevisiae [1] (setting [9]) came to 0.126 ± 0.013.

Regarding LPPTPPLSPPPH, the protein stability index was 0.644 ± 0.025 in the data set with Saccharomyces cerevisiae [1] (setting [3]); 0.688 ± 0.0077 in the data set with Saccharomyces cerevisiae [1] (setting [4]); 0.435 ± 0.028 in the data set on Saccharomyces cerevisiae [1] (setting [5]); 0.5935 ± 0.0017 with Saccharomyces cerevisiae [1] (setting [6]); 0.414 ± 0.0084 with Saccharomyces cerevisiae [1] (setting [7]); 0.433 ± 0.014 with Saccharomyces cerevisiae [1] (setting [8]). In the data set on Saccharomyces cerevisiae [1] (setting [9]), this sequence displayed a protein stability index of 0.5864 ± 0.005.

For the sequence LSPRPPAPYYSP, the protein stability index with Saccharomyces cerevisiae [1] (setting [3]) is 0.657 ± 0.067; with Saccharomyces cerevisiae [1] (setting [4]), 0.733 ± 0.0089; in the data set on Saccharomyces cerevisiae [1] (setting [5]), 0.662 ± 0.041; in the data set on Saccharomyces cerevisiae [1] (setting [6]) it was 0.725 ± 0.014; with Saccharomyces cerevisiae [1] (setting [7]), 0.676 ± 0.03; in the data set on Saccharomyces cerevisiae [1] (setting [8]), 0.662 ± 0.028. This sequence had a protein stability index with Saccharomyces cerevisiae [1] (setting [9]) of 0.7271 ± 0.0069.

In the case of PSPHRAPPGGHP, the protein stability index with Saccharomyces cerevisiae [1] (setting [3]) turned out to be 0.68 ± 0.059; in the data set with Saccharomyces cerevisiae [1] (setting [4]), 0.699 ± 0.026; with Saccharomyces cerevisiae [1] (setting [5]), 0.6636 ± 0.0019; with Saccharomyces cerevisiae [1] (setting [6]) it was 0.7271 ± 0.0067; in the data set with Saccharomyces cerevisiae [1] (setting [7]), 0.673 ± 0.03; in the data set with Saccharomyces cerevisiae [1] (setting [8]), 0.688 ± 0.04. The protein stability index with Saccharomyces cerevisiae [1] (setting [9]) stood at 0.701 ± 0.0029.

On to RKKIRTYINENV, for which the protein stability index in the data set on Saccharomyces cerevisiae [1] (setting [3]) was determined as 0.686 ± 0.079; in the data set on Saccharomyces cerevisiae [1] (setting [4]), 0.699 ± 0.038; with Saccharomyces cerevisiae [1] (setting [5]) it was 0.612 ± 0.018; in the data set on Saccharomyces cerevisiae [1] (setting [6]), 0.766 ± 0.05; in the data set with Saccharomyces cerevisiae [1] (setting [7]), 0.271 ± 0.018; in the data set with Saccharomyces cerevisiae [1] (setting [8]), 0.334 ± 0.04. Also, the protein stability index in the data set with Saccharomyces cerevisiae [1] (setting [9]) was 0.568 ± 0.015.

Consider RPPPTPRSVLLN, for which the protein stability index with Saccharomyces cerevisiae [1] (setting [3]) turned out to be 0.67 ± 0.021; in the data set with Saccharomyces cerevisiae [1] (setting [4]) it was 0.7154 ± 0.0015; in the data set with Saccharomyces cerevisiae [1] (setting [5]), 0.668 ± 0.011; in the data set with Saccharomyces cerevisiae [1] (setting [6]) it was 0.71 ± 0.038; in the data set with Saccharomyces cerevisiae [1] (setting [7]), 0.265 ± 0.024; in the data set with Saccharomyces cerevisiae [1] (setting [8]) it was 0.286 ± 0.024. Besides, the protein stability index with Saccharomyces cerevisiae [1] (setting [9]) stood at 0.506 ± 0.011.

With SVPCWVFLFCLA, the protein stability index was determined as 0.349 ± 0.01 in the data set on Saccharomyces cerevisiae [1] (setting [3]); 0.416 ± 0.028 in the data set on Saccharomyces cerevisiae [1] (setting [4]); 0.281 ± 0.03 in the data set with Saccharomyces cerevisiae [1] (setting [5]); 0.462 ± 0.02 in the data set with Saccharomyces cerevisiae [1] (setting [6]); 0.184 ± 0.016 in the data set with Saccharomyces cerevisiae [1] (setting [7]); 0.227 ± 0.025 in the data set on Saccharomyces cerevisiae [1] (setting [8]). Moreover, in the data set with Saccharomyces cerevisiae [1] (setting [9]), the protein stability index amounted to 0.4033 ± 0.0033.

TWGGGRVSLGGG: the protein stability index was determined as 0.316 ± 0.038 in the data set on Saccharomyces cerevisiae [1] (setting [3]); 0.4048 ± 0.0019 with Saccharomyces cerevisiae [1] (setting [4]); 0.361 ± 0.013 with Saccharomyces cerevisiae [1] (setting [5]); 0.4176 ± 0.0019 in the data set with Saccharomyces cerevisiae [1] (setting [6]); 0.363 ± 0.01 with Saccharomyces cerevisiae [1] (setting [7]); 0.364 ± 0.017 in the data set on Saccharomyces cerevisiae [1] (setting [8]). This sequence also returned a protein stability index with Saccharomyces cerevisiae [1] (setting [9]) of 0.407 ± 0.028.

For the sequence VCNSIPLTPPPA, the protein stability index in the data set with Saccharomyces cerevisiae [1] (setting [3]) stood at 0.679 ± 0.031; with Saccharomyces cerevisiae [1] (setting [4]) it was 0.7272 ± 0.0045; in the data set with Saccharomyces cerevisiae [1] (setting [5]), 0.618 ± 0.025; with Saccharomyces cerevisiae [1] (setting [6]) it was 0.716 ± 0.015; with Saccharomyces cerevisiae [1] (setting [7]), 0.6171 ± 0.00098; with Saccharomyces cerevisiae [1] (setting [8]), 0.641 ± 0.026. Moreover, the protein stability index in the data set on Saccharomyces cerevisiae [1] (setting [9]) came out at 0.703 ± 0.033.

VSGITLPFLMFH: the protein stability index in the data set on Saccharomyces cerevisiae [1] (setting [3]) was 0.287 ± 0.055; in the data set on Saccharomyces cerevisiae [1] (setting [4]), 0.242 ± 0.034; with Saccharomyces cerevisiae [1] (setting [5]) it was 0.348 ± 0.022; with Saccharomyces cerevisiae [1] (setting [6]) it was 0.458 ± 0.012; in the data set with Saccharomyces cerevisiae [1] (setting [7]), 0.635 ± 0.0033; in the data set on Saccharomyces cerevisiae [1] (setting [8]), 0.329 ± 0.063. This sequence also registered a protein stability index with Saccharomyces cerevisiae [1] (setting [9]) of 0.426 ± 0.0043.

WKGEREKQGKEG displayed a protein stability index in the data set on Saccharomyces cerevisiae [2] of 0.589 ± 0.084.

Turning to WKKDTKTKKKKN, the protein stability index in the data set on Saccharomyces cerevisiae [2] was found to be 0.695 ± 0.034.

WKKSEKTEHEQI showed a protein stability index in the data set on Saccharomyces cerevisiae [2] of 0.653 ± 0.12.

Regarding WKQKRGTHNIKD, the protein stability index with Saccharomyces cerevisiae [2] was 0.722 ± 0.011.

For WLFLCWCFFCCL, the protein stability index in the data set on Saccharomyces cerevisiae [2] is 0.597 ± 0.12.
